Experimental data: the Immune Epitope Database (IEDB)

Key:
[1] = target: HLA-B*54:01; experiment: IEDB peptide-MHC binding, purified MHC/competitive/radioactivity; filed as Kd, often an IC50 or EC50 that approximates it; ≥ and ≤ were set here for values at or beyond the usual limits of such assays
[2] = target: HLA-B*53:01; experiment: as above
[3] = target: HLA-B*35:01; experiment: as above
[4] = target: HLA-B*51:01; experiment: as above
[5] = target: HLA-B*07:02; experiment: as above
[6] = target: HLA-A*69:01; experiment: IEDB peptide-MHC binding, purified MHC/direct/fluorescence; filed as Kd, often an IC50 or EC50 that approximates it; ≥ and ≤ were set here for values at or beyond the usual limits of such assays; conditions: source organism: Camelpox virus M-96
[7] = target: HLA-A*02:03; experiment: as above; conditions: source organism: Variola virus
[8] = target: HLA-A*02:11; experiment: as above; conditions: source organism: Variola virus
[9] = target: HLA-A*02:01; experiment: as above; conditions: source organism: Camelpox virus M-96
[10] = target: HLA-A*11:01; experiment: IEDB peptide-MHC binding, purified MHC/competitive/fluorescence; filed as Kd, often an IC50 or EC50 that approximates it; ≥ and ≤ were set here for values at or beyond the usual limits of such assays
[11] = target: HLA-A*31:01; experiment: as above; conditions: source organism: Encephalitozoon cuniculi GB-M1
[12] = target: HLA-A*03:01; experiment: as above; conditions: source organism: Encephalitozoon cuniculi GB-M1
[13] = source organism: Mammarenavirus brazilense
[14] = source organism: Vaccinia virus WR
[15] = source organism: Mammarenavirus guanaritoense
[16] = source organism: SARS coronavirus Tor2
[17] = source organism: Triticum aestivum

TPTQLAETI
Kd [1, 13]: 15.3 µM
Kd [2, 13]: 0.183 µM
Kd [3, 13]: 0.66 µM
Kd [4, 13]: 1.42 µM
Kd [5, 13]: 1.8 µM

DPTFQLLNM
Kd [1, 14]: ≥ 78.1 µM
Kd [2, 14]: 0.237 µM
Kd [3, 14]: 1.13 µM
Kd [4, 14]: 3.35 µM
Kd [5, 14]: ≥ 77.5 µM

FLQQSIFRF
Kd [6]: ≥ 20 µM
Kd [7]: 0.747 µM
Kd [8]: 0.002 µM
Kd [9]: 0.154 µM

KPINLSNSV
Kd [1, 15]: 0.193 µM
Kd [2, 15]: 1.15 µM
Kd [3, 15]: 0.188 µM
Kd [4, 15]: 2.16 µM
Kd [5, 15]: 0.0229 µM

HAGAKSFYK
Kd ([10]; source organism: Influenza A virus (A/California/04/2009(H1N1))): 0.0055 µM

NPAWRKAVFI
Kd [1, 16]: ≥ 69.9 µM
Kd [2, 16]: ≥ 41.8 µM
Kd [3, 16]: ≥ 69.9 µM
Kd [4, 16]: ≥ 41.4 µM
Kd [5, 16]: 3.37 µM

QPQEQVPL
Kd [1, 17]: ≥ 43.2 µM
Kd [2, 17]: ≥ 87.7 µM
Kd [3, 17]: ≥ 87.8 µM
Kd [4, 17]: 0.041 µM
Kd [5, 17]: ≥ 87.3 µM

VPANSTVLSF
Kd [1, 16]: 16.9 µM
Kd [2, 16]: 0.0952 µM
Kd [3, 16]: 0.355 µM
Kd [4, 16]: 3.25 µM
Kd [5, 16]: 1.71 µM

ILSFPYLFK
Kd [11]: ≥ 20 µM
Kd [12]: 0.0029 µM
Kd ([10]; source organism: Encephalitozoon cuniculi GB-M1): 0.0038 µM

SPPIPMSRL
Kd [1, 14]: ≥ 41.5 µM
Kd [2, 14]: 9.29 µM
Kd [3, 14]: ≥ 53.1 µM
Kd [4, 14]: 0.912 µM
Kd [5, 14]: 0.000766 µM

MPASWVMRIM
Kd [1, 16]: 0.0686 µM
Kd [2, 16]: 0.0628 µM
Kd [3, 16]: 0.0182 µM
Kd [4, 16]: 0.00861 µM
Kd [5, 16]: 0.00851 µM

SPPLISILMI
Kd [1, 14]: 7.63 µM
Kd [2, 14]: 2.22 µM
Kd [3, 14]: ≥ 69.9 µM
Kd [4, 14]: 1.15 µM
Kd [5, 14]: 1.01 µM

PPYCTIAPV
Kd [1, 17]: 1.08 µM
Kd [2, 17]: 11.6 µM
Kd [3, 17]: ≥ 21.5 µM
Kd [4, 17]: ≥ 27.4 µM
Kd [5, 17]: 0.206 µM
